This is an account of results in IntAct's records for PubMed 12612073.

First the molecules themselves.
B1: Estrogen receptor (Homo sapiens), P03372 (parent)
chain: MTMTLHTKASGMALLHQIQGNELEPLNRPQLKIPLERPLGEVYLDSSKPAVYNYPEGAAYEFNAAAAANAQVYGQTGLPYGPGSEAAAFGSNGLGGFPPLNSVSPSPLMLLHPPPQLSPFLQPHGQQVPYYLENEPSGYTVREAGPPAFYRPNSDNRRQGGRERLASTNDKGSMAMESAKETRYCAVCNDYASGYHYGVWSCEGCKAFFKRSIQGHNDYMCPATNQCTIDKNRRKSCQACRLRKCYEVGMMKGGIRKDRRGGRMLKHKRQRDDGEGRGEVGSAGDMRAANLWPSPLMIKRSKKNSLALSLTADQMVSALLDAEPPILYSEYDPTRPFSEASMMGLLTNLADRELVHMINWAKRVPGFVDLTLHDQVHLLECAWLEILMIGLVWRSMEHPGKLLFAPNLLLDRNQGKCVEGMVEIFDMLLATSSRFRMMNLQGEEFVCLKSIILLNSGVYTFLSSTLKSLEEKDHIHRVLDKITDTLIHLMAKAGLTLQQQHQRLAQLLLILSHIRHMSNKGMEHLYSMKCKNVVPLYDLLLEMLDAHRLHAPTSRGGASVEETDQSHLATAGSTSSHSLQKYYITGEAEGFPATV
B2: Progesterone receptor (Homo sapiens), P06401-1 (parent)
chain: MTELKAKGPRAPHVAGGPPSPEVGSPLLCRPAAGPFPGSQTSDTLPEVSAIPISLDGLLFPRPCQGQDPSDEKTQDQQSLSDVEGAYSRAEATRGAGGSSSSPPEKDSGLLDSVLDTLLAPSGPGQSQPSPPACEVTSSWCLFGPELPEDPPAAPATQRVLSPLMSRSGCKVGDSSGTAAAHKVLPRGLSPARQLLLPASESPHWSGAPVKPSPQAAAVEVEEEDGSESEESAGPLLKGKPRALGGAAAGGGAAAVPPGAAAGGVALVPKEDSRFSAPRVALVEQDAPMAPGRSPLATTVMDFIHVPILPLNHALLAARTRQLLEDESYDGGAGAASAFAPPRSSPCASSTPVAVGDFPDCAYPPDAEPKDDAYPLYSDFQPPALKIKEEEEGAEASARSPRSYLVAGANPAAFPDFPLGPPPPLPPRATPSRPGEAAVTAAPASASVSSASSSGSTLECILYKAEGAPPQQGPFAPPPCKAPGASGCLLPRDGLPSTSASAAAAGAAPALYPALGLNGLPQLGYQAAVLKEGLPQVYPPYLNYLRPDSEASQSPQYSFESLPQKICLICGDEASGCHYGVLTCGSCKVFFKRAMEGQHNYLCAGRNDCIVDKIRRKNCPACRLRKCCQAGMVLGGRKFKKFNKVRVVRALDAVALPQPVGVPNESQALSQRFTFSPGQDIQLIPPLINLLMSIEPDVIYAGHDNTKPDTSSSLLTSLNQLGERQLLSVVKWSKSLPGFRNLHIDDQITLIQYSWMSLMVFGLGWRSYKHVSGQMLYFAPDLILNEQRMKESSFYSLCLTMWQIPQEFVKLQVSQEEFLCMKVLLLLNTIPLEGLRSQTQFEEMRSSYIRELIKAIGLRQKGVVSSSQRFYQLTKLLDNLHDLVKQLHLYCLNTFIQSRALSVEFPEMMSEVIAAQLPKILAGMVKPLLFHKK

The variants in one assay derive from B1. The note with it: with PGR.
On to MTMTLHTKASGMALLHQIQGNELEPLNRPQLKIPLERPLGEVYLDSSKPAVYNYPEGAAYEFNAAAAANAQVYGQTGLPYGPGSEAAAFGSNGLGGFPPLNSVSPSPLMLLHPPPQLSPFLQPHGQQVPYYLENEPSGYTVREAGPPAFYRPNSDNRRQGGRERLASTNDKGSMAMESAKETRYCAVCNDYASGYHYGVWSCEGCKAFFKRSIQGHNDYMCPATNQCTIDKNRRKSCQACRLRKCYEVGMMKGGIRKDRRGGRMLKHKRQRDDGEGRGEVGSAGDMRAANLWPSPLMIKRSKKNSLALSLTADQMVSALLDAEPPILYSEYDPTRPFSEASMMGLLTNLADRELVHMINWAKRVPGFVDLTLHDQVHLLECAWLEILMIGLVWRSMEHPGKLLFAPNLLLDRNQGKCVEGMVEIFDMLLATSSRFRMMNLQGEEFVCLKSIILLNSGVYTFLSSTLKSLEEKDHIHRVLDKITDTLIHLMAKAGLTLQQQHQRLAQLLLILSHIRHMSNKGMEHLYSMKCKNVVPLFDLLLEMLDAHRLHAPTSRGGASVEETDQSHLATAGSTSSHSLQKYYITGEAEGFPATV [Y537F], for which the “effect of a mutation on the interaction” value was “with no effect”.

Variants of B2 are the subject of a further assay. The settings on record: with esr1_human ESR1, P03372.
As to P422A;P423A;P426A, the “effect of a mutation on the interaction” value is “with no effect”.

Variants of B2 are the subject of the next assay. The note with it: with src_human SRC.
As for P422A;P423A;P426A, the “effect of a mutation on the interaction” value was “disrupting interaction strength”.
